Reference: publication PMC10586804

Experiments:
[1] = biological target: vasopressin type 2 receptor (UniProt P30518)
[2] = biological target: vasopressin type 2 receptor (UniProt P30518); remark: listed apart in the source
[3] = biological target: chimeric V2R harboring the carboxy-terminal tail of the β2-adrenergic receptor

mini G protein mGs
AVP-induced maximal efficacy of Rluc-mGs recruitment to early endosomes (EbBRET with rGFP-Rab5), AVP dose-response, 45 min, parental HEK293 cells [1]: 0.18 ΔEbBRET | AVP-induced maximal efficacy of Rluc-mGs recruitment to early endosomes (EbBRET with rGFP-Rab5), AVP dose-response, 45 min, Δβarr1/2 HEK293 cells [1]: 0.074 ΔEbBRET | AVP-induced maximal efficacy of Rluc-mGs recruitment to the plasma membrane (EbBRET with rGFP-CAAX), AVP dose-response, 10 min, parental HEK293 cells [1]: 0.324 ΔEbBRET | AVP-induced maximal efficacy of Rluc-mGs recruitment to the plasma membrane (EbBRET with rGFP-CAAX), AVP dose-response, 10 min, Δβarr1/2 HEK293 cells [1]: 0.376 ΔEbBRET | Potency of AVP (LogEC50) for Rluc-mGs recruitment to early endosomes (EbBRET with rGFP-Rab5), 45 min, parental HEK293 cells [1]: -8.37 LogEC50 | Potency of AVP (LogEC50) for Rluc-mGs recruitment to early endosomes (EbBRET with rGFP-Rab5), 45 min, Δβarr1/2 HEK293 cells [1]: -8.34 LogEC50 | Potency of AVP (LogEC50) for Rluc-mGs recruitment to the plasma membrane (EbBRET with rGFP-CAAX), 10 min, parental HEK293 cells [1]: -7.9 LogEC50 | Potency of AVP (LogEC50) for Rluc-mGs recruitment to the plasma membrane (EbBRET with rGFP-CAAX), 10 min, Δβarr1/2 HEK293 cells [1]: -7.99 LogEC50 | AVP-mediated maximal efficacy of Rluc-mGs recruitment to early endosomes (EbBRET with rGFP-Rab5), AVP dose-response, 45 min, cells expressing V2R [2]: 0.167 ΔEbBRET | AVP-mediated maximal efficacy of Rluc-mGs recruitment to the plasma membrane (EbBRET with rGFP-CAAX), AVP dose-response, 10 min, cells expressing V2R [2]: 0.3 ΔEbBRET | Potency of AVP (logEC50) for Rluc-mGs recruitment to early endosomes (EbBRET with rGFP-Rab5), 45 min, cells expressing V2R [2]: -8.65 logEC50 | Potency of AVP (logEC50) for Rluc-mGs recruitment to the plasma membrane (EbBRET with rGFP-CAAX), 10 min, cells expressing V2R [2]: -8.07 logEC50 | Transduction coefficient log(τ/Ka) of Rluc-mGs recruitment to early endosomes (EbBRET with rGFP-Rab5), cells expressing V2R [2]: 8.63 log(τ/Ka) | Transduction coefficient log(τ/Ka) of Rluc-mGs recruitment to the plasma membrane (EbBRET with rGFP-CAAX), cells expressing V2R [2]: 7.98 log(τ/Ka) | AVP-mediated maximal efficacy of Rluc-mGs recruitment to early endosomes (EbBRET with rGFP-Rab5), AVP dose-response, 45 min, cells expressing V2β2AR [3]: 0.15 ΔEbBRET | AVP-mediated maximal efficacy of Rluc-mGs recruitment to the plasma membrane (EbBRET with rGFP-CAAX), AVP dose-response, 10 min, cells expressing V2β2AR [3]: 0.392 ΔEbBRET | Potency of AVP (logEC50) for Rluc-mGs recruitment to early endosomes (EbBRET with rGFP-Rab5), 45 min, cells expressing V2β2AR [3]: -8.34 logEC50 | Potency of AVP (logEC50) for Rluc-mGs recruitment to the plasma membrane (EbBRET with rGFP-CAAX), 10 min, cells expressing V2β2AR [3]: -8.07 logEC50 | Transduction coefficient log(τ/Ka) of Rluc-mGs recruitment to early endosomes (EbBRET with rGFP-Rab5), cells expressing V2β2AR [3]: 8.31 log(τ/Ka) | Transduction coefficient log(τ/Ka) of Rluc-mGs recruitment to the plasma membrane (EbBRET with rGFP-CAAX), cells expressing V2β2AR [3]: 8.04 log(τ/Ka)

mini G protein mGsq
AVP-induced maximal efficacy of Rluc-mGsq recruitment to early endosomes (EbBRET with rGFP-Rab5), AVP dose-response, 45 min, parental HEK293 cells [1]: 0.05 ΔEbBRET | AVP-induced maximal efficacy of Rluc-mGsq recruitment to early endosomes (EbBRET with rGFP-Rab5), AVP dose-response, 45 min, Δβarr1/2 HEK293 cells [1]: 0.024 ΔEbBRET | AVP-induced maximal efficacy of Rluc-mGsq recruitment to the plasma membrane (EbBRET with rGFP-CAAX), AVP dose-response, 10 min, parental HEK293 cells [1]: 0.168 ΔEbBRET | AVP-induced maximal efficacy of Rluc-mGsq recruitment to the plasma membrane (EbBRET with rGFP-CAAX), AVP dose-response, 10 min, Δβarr1/2 HEK293 cells [1]: 0.18 ΔEbBRET | Potency of AVP (LogEC50) for Rluc-mGsq recruitment to early endosomes (EbBRET with rGFP-Rab5), 45 min, parental HEK293 cells [1]: -8.38 LogEC50 | Potency of AVP (LogEC50) for Rluc-mGsq recruitment to early endosomes (EbBRET with rGFP-Rab5), 45 min, Δβarr1/2 HEK293 cells [1]: -8.32 LogEC50 | Potency of AVP (LogEC50) for Rluc-mGsq recruitment to the plasma membrane (EbBRET with rGFP-CAAX), 10 min, parental HEK293 cells [1]: -7.81 LogEC50 | Potency of AVP (LogEC50) for Rluc-mGsq recruitment to the plasma membrane (EbBRET with rGFP-CAAX), 10 min, Δβarr1/2 HEK293 cells [1]: -7.95 LogEC50 | AVP-mediated maximal efficacy of Rluc-mGsq recruitment to early endosomes (EbBRET with rGFP-Rab5), AVP dose-response, 45 min, cells expressing V2R [2]: 0.05 ΔEbBRET | AVP-mediated maximal efficacy of Rluc-mGsq recruitment to the plasma membrane (EbBRET with rGFP-CAAX), AVP dose-response, 10 min, cells expressing V2R [2]: 0.161 ΔEbBRET | Potency of AVP (logEC50) for Rluc-mGsq recruitment to early endosomes (EbBRET with rGFP-Rab5), 45 min, cells expressing V2R [2]: -8.44 logEC50 | Potency of AVP (logEC50) for Rluc-mGsq recruitment to the plasma membrane (EbBRET with rGFP-CAAX), 10 min, cells expressing V2R [2]: -7.88 logEC50 | Transduction coefficient log(τ/Ka) of Rluc-mGsq recruitment to early endosomes (EbBRET with rGFP-Rab5), cells expressing V2R [2]: 8.31 log(τ/Ka) | Transduction coefficient log(τ/Ka) of Rluc-mGsq recruitment to the plasma membrane (EbBRET with rGFP-CAAX), cells expressing V2R [2]: 7.9 log(τ/Ka) | AVP-mediated maximal efficacy of Rluc-mGsq recruitment to early endosomes (EbBRET with rGFP-Rab5), AVP dose-response, 45 min, cells expressing V2β2AR [3]: 0.061 ΔEbBRET | AVP-mediated maximal efficacy of Rluc-mGsq recruitment to the plasma membrane (EbBRET with rGFP-CAAX), AVP dose-response, 10 min, cells expressing V2β2AR [3]: 0.183 ΔEbBRET | Potency of AVP (logEC50) for Rluc-mGsq recruitment to early endosomes (EbBRET with rGFP-Rab5), 45 min, cells expressing V2β2AR [3]: -7.82 logEC50 | Potency of AVP (logEC50) for Rluc-mGsq recruitment to the plasma membrane (EbBRET with rGFP-CAAX), 10 min, cells expressing V2β2AR [3]: -7.97 logEC50 | Transduction coefficient log(τ/Ka) of Rluc-mGsq recruitment to early endosomes (EbBRET with rGFP-Rab5), cells expressing V2β2AR [3]: 7.91 log(τ/Ka) | Transduction coefficient log(τ/Ka) of Rluc-mGsq recruitment to the plasma membrane (EbBRET with rGFP-CAAX), cells expressing V2β2AR [3]: 7.99 log(τ/Ka)
